{
  "source": "paper PMC11284791",
  "key": {"[1]": {"target": "Triosephosphate isomerase from G. gallus (G. gallus) (UniProt P00940)", "sequence (P00940 whole entry)": "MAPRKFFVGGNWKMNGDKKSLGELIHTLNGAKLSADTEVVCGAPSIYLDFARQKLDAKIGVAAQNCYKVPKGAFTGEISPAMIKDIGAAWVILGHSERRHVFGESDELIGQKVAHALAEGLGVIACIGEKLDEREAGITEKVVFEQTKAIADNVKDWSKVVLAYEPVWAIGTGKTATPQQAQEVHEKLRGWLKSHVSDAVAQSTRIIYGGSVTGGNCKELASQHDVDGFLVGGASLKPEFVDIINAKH", "assay": "NMR titration; 2.5 μM [U-15N]-TPI with 5 mM DHAP, titrated with 0-30 μM ribosomes; integrated amide proton envelope (6.30-10.54 ppm) of 1H-15N HSQC; 10 mM sodium phosphate pH 7.5, 0.1 M NaCl, 290 K; apparent Kd from the total binding equation with a nonspecific term; the paper calls it an upper limit to Kd"}, "[2]": {"target": "Triosephosphate isomerase from G. gallus (G. gallus) (UniProt P00940)", "assay": "NMR titration; 2.5 μM [U-15N]-TPI with 1 mM GAP, titrated with 0-30 μM ribosomes; integrated amide proton envelope (6.30-10.54 ppm) of 1H-15N HSQC; 10 mM sodium phosphate pH 7.5, 0.1 M NaCl, 290 K; apparent Kd from the total binding equation with a nonspecific term; the paper calls it an upper limit to Kd"}},
  "data": [
    {"substance": "Intact 70S ribosomes from E. coli MRE600 (from UniProt P0A7K2 1-121; P0A7R1 1-149; P0A7J3 1-165; P0A7J7 1-142; P02413 1-144; P0C018 1-117; P0A7L3 1-118; P61175 1-110; P0AG67 1-557; P02358 1-135; P0A7W7 1-130; P0A7R9 1-129) (complex)", "values": [
      {"measurement": "Kd", "setting": "[1]", "value": 1050, "unit": "nM"},
      {"measurement": "Kd", "setting": "[2]", "value": 1210, "unit": "nM"}
    ]}
  ]
}
